Measurements as given in PMC10889306, “ApoE Isoforms Inhibit Amyloid Aggregation of Proinflammatory Protein S100A9” (International Journal of Molecular Sciences, 2024).
“And” between values parts separate entries of the source, which are not always exact repeats. Equal entries are not always repeated.

Key:
ApoE3 (lipid-free) [1] = biological target: T1, ApoE3 (lipid-free) (human, UniProt P02649 19-317); experiment: cross-linking; native proteins, 4 uM S100A9 and 4 uM ApoE isoform (1:1), preincubated at 4 C overnight; glutaraldehyde at 10- and 100-fold molar excess, 30 min at 4 C, quenched with Tris; SDS-PAGE and Western blot with anti-S100A9 polyclonal antibodies; conditions: both partners purified
T1 construct: Apolipoprotein E, isoform ApoE3 (Cys112/Arg158), human; printed as a 299-residue lipoprotein; the methods call the ApoE isoforms full-length; PDB 2L7B (NMR structure of full-length ApoE3) was used for the modelling only; also called Apolipoprotein E3; lipid-free ApoE3; source: bought: AlexoTech AB (recombinant), then size-exclusion chromatography (Superdex 200)
T1 sequence (P02649 19-317): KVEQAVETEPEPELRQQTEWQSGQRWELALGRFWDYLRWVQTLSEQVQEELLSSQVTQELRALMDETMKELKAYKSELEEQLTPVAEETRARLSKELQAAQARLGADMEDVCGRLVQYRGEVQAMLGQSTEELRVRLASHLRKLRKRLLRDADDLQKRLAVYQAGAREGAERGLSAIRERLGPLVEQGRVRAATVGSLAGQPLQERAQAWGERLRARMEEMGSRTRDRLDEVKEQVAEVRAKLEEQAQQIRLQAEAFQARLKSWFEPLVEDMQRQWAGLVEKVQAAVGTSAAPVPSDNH

ApoE4 (lipid-free) = biological target: T2, ApoE4 (lipid-free) (human, UniProt P02649 19-317, Cys112 to Arg112); experiment: as above; conditions: both partners purified
T2 construct: Apolipoprotein E, isoform ApoE4 (Arg112/Arg158), human; printed as a 299-residue lipoprotein; the methods call the ApoE isoforms full-length; Natural allele APOE e4; differs from ApoE3 only at position 112; also called Apolipoprotein E4; lipid-free ApoE4; source: bought: AlexoTech AB (recombinant), then size-exclusion chromatography (Superdex 200)
T2 sequence (P02649 other isoform, or with tags, fused parts or gaps Cys112 to Arg112 | Cys112 to Arg112): as the sequence (P02649 19-317) above, with C112R counted along it

ApoE3 (lipid-free) [2] = biological target: T1, ApoE3 (lipid-free); experiment: SDS-stable complex by SDS-PAGE and Western blot; 50 uM S100A9 with 2 uM lipid-free or lipidated ApoE isoform, PBS, 42 C, 70 h, non-stirring; reducing Laemmli buffer, 4-20% gel; Coomassie and Western blot with anti-S100A9 polyclonal antibody (Invitrogen); conditions: both partners purified
[3] = biological target: T3, ApoE3-DOPC (lipidated ApoE3) (human, UniProt P02649 19-317); experiment: as above; conditions: both partners purified
T3 construct: Apolipoprotein E, isoform ApoE3 (Cys112/Arg158), human; printed as a 299-residue lipoprotein; 'Lipidated full-length ApoE isoforms'; also called DOPC-ApoE3; source: bought: AlexoTech AB (recombinant)
T3 sequence (P02649 19-317): as the sequence (P02649 19-317) above

[4] = biological target: T4, ApoE4-DOPC (lipidated ApoE4) (human, UniProt P02649 19-317, Cys112 to Arg112); experiment: as above; conditions: both partners purified
T4 construct: Apolipoprotein E, isoform ApoE4 (Arg112/Arg158), human; printed as a 299-residue lipoprotein; 'Lipidated full-length ApoE isoforms'; source: bought: AlexoTech AB (recombinant)
T4 sequence (P02649 other isoform, or with tags, fused parts or gaps Cys112 to Arg112 | Cys112 to Arg112): as the sequence (P02649 19-317) above, with C112R counted along it

[5] = biological target: the molecule itself; experiment: as above
[6] = biological target: the molecule itself; experiment: SDS-stable complex by Western blot of pellet and SEC fractions; 100 uM S100A9 with 5 uM lipid-free ApoE4, PBS, 42 C, 70 h (methods: 72 h); centrifuged 14,000 rpm 15 min; pellet and Superdex 200 peaks of the supernatant on SDS-PAGE and Western blot with anti-S100A9 polyclonal antibodies (Santa Cruz)

B1: S100A9 (natural protein)
chain: KMSQLERNIETIINTFHQYSVKLGHPDTLNQGEFKELVRKDLQNFLKKENKNEKVIEHIMEDLDTNADKQLSFEEFIMLMARLTWASHEKMHEGDEGPGHHHKPGLGEGTP
notes: 13 kDa monomer on the gels; PDB 5I8N (S100A9 dimer, NMR) was used for the modelling only; also called native S100A9; S100A9 amyloids; source: Escherichia coli, purified as described previously [57]; Superdex 200 gel filtration for the cross-linking
stoichiometry N (ApoE3 (lipid-free) [1]): 2 S100A9 per ApoE | stoichiometry N (ApoE4 (lipid-free)): 1 S100A9 per ApoE and 2 S100A9 per ApoE | stoichiometry N (ApoE3 (lipid-free) [2]): 1 S100A9 per ApoE | stoichiometry N [3]: 1 S100A9 per ApoE | stoichiometry N [4]: 1 S100A9 per ApoE | stoichiometry N [5]: 3 | stoichiometry N [6]: 2
